Data: article PMC6862464, “Structural Insights into AQP2 Targeting to Multivesicular Bodies” (International Journal of Molecular Sciences, 2019)

B1: full-length human lysosomal trafficking regulator-interacting protein 5 (FL-LIP5) (natural protein)
chain: MAALAPLPPLPAQFKSIQHHLRTAQEHDKRDPVVAYYCRLYAMQTGMKIDSKTPECRKFLSKLMDQLEALKKQLGDNEAITQEIVGCAHLENYALKMFLYADNEDRAGRFHKNMIKSFYTASLLIDVITVFGELTDENVKHRKYARWKATYIHNCLKNGETPQAGPVGIEEDNDIEENEDAGAASLPTQPTQPSSSSTYDPSNMPSGNYTGIQIPPGAHAPANTPAEVPHSTGVASNTIQPTPQTIPAIDPALFNTISQGDVRLTPEDFARAQKYCKYAGSALQYEDVSTAVQNLQKALKLLTTGREDYDIPTT
notes: spacer between the last LIP5 residue and the TEV protease site that precedes the His tag; same tag, TEV site and linker as ND-LIP5; No TEV cleavage is described; also called full-length LIP5; wild-type LIP5; source: E. coli BL21*(DE3), purified (HisTrap, SEC)

Legend:
Details in all cases: both partners purified
[1] = molecular target: T1, human aquaporin 2 (AQP2), wild-type (human, UniProt P41181 1-271, cysteine residues labeled with C5 maleimide Alexa 488; dephosphorylated with alkaline phosphatase before labeling); experiment: other fluorescence titration; stoichiometry: labeled AQP2 kept 20 times above the Kd, LIP5 added to a molar LIP5:AQP2 ratio between 0 and 2; saturation point from the intercept of two linear fits; same buffers
T1 construct: concentrations and molar ratios seem to count monomers; His-tag is called uncleavable; also called WT; labeled AQP2; source: Pichia pastoris, purified (HisTrap, SEC) in OGNG; not shown: His-tag, N-terminal, kept
T1 sequence (looked up): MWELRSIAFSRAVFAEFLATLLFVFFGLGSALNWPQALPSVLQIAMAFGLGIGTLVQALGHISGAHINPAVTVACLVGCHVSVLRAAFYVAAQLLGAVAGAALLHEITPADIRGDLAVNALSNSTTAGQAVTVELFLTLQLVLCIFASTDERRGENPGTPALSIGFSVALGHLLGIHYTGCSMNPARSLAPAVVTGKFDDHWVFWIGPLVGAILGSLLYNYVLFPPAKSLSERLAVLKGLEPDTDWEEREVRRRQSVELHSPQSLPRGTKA

[2] = molecular target: T1, human aquaporin 2 (AQP2), wild-type; experiment: other fluorescence titration; Alexa 488-labeled, dephosphorylated AQP2 (around 1 uM) in the cuvette, titrated with unlabeled LIP5; total fluorescence; 20 mM Tris-HCl pH 8, 300 mM NaCl, 0.2% OGNG; triplicate titrations
[3] = molecular target: B1; experiment: as above

| Binder | stoichiometry N [1] | Kd [2] [nM] | Kd [3] [nM] |
| --- | --- | --- | --- |
| N-terminal domain of human LIP5 (ND-LIP5, residues 1-162) (domain or fragment, LIP5, human, N-terminal domain, residues 1-162; spacer between the last ND-LIP5 residue and the TEV protease site that precedes the His tag; TEV site between spacer and His tag; no cleavage described; source: E. coli BL21*(DE3), purified (HisTrap, SEC)) MAALAPLPPLPAQFKSIQHHLRTAQEHDKRDPVVAYYCRLYAMQTGMKIDSKTPECRKFLSKLMDQLEALKKQLGDNEAITQEIVGCAHLENYALKMFLYADNEDRAGRFHKNMIKSFYTASLLIDVITVFGELTDENVKHRKYARWKATYIHNCLKNGETPDYDIPTT | 0.29 molar ratio ND-LIP5:AQP2 | 64.4 | – |
| B1 | 0.42 molar ratio FL-LIP5:AQP2 | – | – |
| human AQP2 K238A (natural protein, UniProt P41181 1-271, looked up, cysteine residues labeled with C5 maleimide Alexa 488; dephosphorylated with alkaline phosphatase before labeling, Mutant of m1; source: Pichia pastoris, purified (HisTrap, SEC) in OGNG; not shown: His-tag, N-terminal, kept) MWELRSIAFSRAVFAEFLATLLFVFFGLGSALNWPQALPSVLQIAMAFGLGIGTLVQALGHISGAHINPAVTVACLVGCHVSVLRAAFYVAAQLLGAVAGAALLHEITPADIRGDLAVNALSNSTTAGQAVTVELFLTLQLVLCIFASTDERRGENPGTPALSIGFSVALGHLLGIHYTGCSMNPARSLAPAVVTGKFDDHWVFWIGPLVGAILGSLLYNYVLFPPAKSLSERLAVLAGLEPDTDWEEREVRRRQSVELHSPQSLPRGTKA | – | – | 552 |
| human AQP2 E241A (natural protein, UniProt P41181 1-271, looked up, cysteine residues labeled with C5 maleimide Alexa 488; dephosphorylated with alkaline phosphatase before labeling, Mutant of m1; source: Pichia pastoris, purified (HisTrap, SEC) in OGNG; not shown: His-tag, N-terminal, kept) MWELRSIAFSRAVFAEFLATLLFVFFGLGSALNWPQALPSVLQIAMAFGLGIGTLVQALGHISGAHINPAVTVACLVGCHVSVLRAAFYVAAQLLGAVAGAALLHEITPADIRGDLAVNALSNSTTAGQAVTVELFLTLQLVLCIFASTDERRGENPGTPALSIGFSVALGHLLGIHYTGCSMNPARSLAPAVVTGKFDDHWVFWIGPLVGAILGSLLYNYVLFPPAKSLSERLAVLKGLAPDTDWEEREVRRRQSVELHSPQSLPRGTKA | – | – | 700 |
| human AQP2 L230A (natural protein, UniProt P41181 1-271, looked up, cysteine residues labeled with C5 maleimide Alexa 488; dephosphorylated with alkaline phosphatase before labeling, Mutant of m1; source: Pichia pastoris, purified (HisTrap, SEC) in OGNG; not shown: His-tag, N-terminal, kept) MWELRSIAFSRAVFAEFLATLLFVFFGLGSALNWPQALPSVLQIAMAFGLGIGTLVQALGHISGAHINPAVTVACLVGCHVSVLRAAFYVAAQLLGAVAGAALLHEITPADIRGDLAVNALSNSTTAGQAVTVELFLTLQLVLCIFASTDERRGENPGTPALSIGFSVALGHLLGIHYTGCSMNPARSLAPAVVTGKFDDHWVFWIGPLVGAILGSLLYNYVLFPPAKSASERLAVLKGLEPDTDWEEREVRRRQSVELHSPQSLPRGTKA | – | – | 156 |
| human AQP2 L237A (natural protein, UniProt P41181 1-271, looked up, cysteine residues labeled with C5 maleimide Alexa 488; dephosphorylated with alkaline phosphatase before labeling, Mutant of m1; source: Pichia pastoris, purified (HisTrap, SEC) in OGNG; not shown: His-tag, N-terminal, kept) MWELRSIAFSRAVFAEFLATLLFVFFGLGSALNWPQALPSVLQIAMAFGLGIGTLVQALGHISGAHINPAVTVACLVGCHVSVLRAAFYVAAQLLGAVAGAALLHEITPADIRGDLAVNALSNSTTAGQAVTVELFLTLQLVLCIFASTDERRGENPGTPALSIGFSVALGHLLGIHYTGCSMNPARSLAPAVVTGKFDDHWVFWIGPLVGAILGSLLYNYVLFPPAKSLSERLAVAKGLEPDTDWEEREVRRRQSVELHSPQSLPRGTKA | – | – | 535 |
| human AQP2 R233A (natural protein, UniProt P41181 1-271, looked up, cysteine residues labeled with C5 maleimide Alexa 488; dephosphorylated with alkaline phosphatase before labeling, Mutant of m1; source: Pichia pastoris, purified (HisTrap, SEC) in OGNG; not shown: His-tag, N-terminal, kept) MWELRSIAFSRAVFAEFLATLLFVFFGLGSALNWPQALPSVLQIAMAFGLGIGTLVQALGHISGAHINPAVTVACLVGCHVSVLRAAFYVAAQLLGAVAGAALLHEITPADIRGDLAVNALSNSTTAGQAVTVELFLTLQLVLCIFASTDERRGENPGTPALSIGFSVALGHLLGIHYTGCSMNPARSLAPAVVTGKFDDHWVFWIGPLVGAILGSLLYNYVLFPPAKSLSEALAVLKGLEPDTDWEEREVRRRQSVELHSPQSLPRGTKA | – | – | 487 |
| human AQP2 L234A (natural protein, UniProt P41181 1-271, looked up, cysteine residues labeled with C5 maleimide Alexa 488; dephosphorylated with alkaline phosphatase before labeling, Mutant of m1; source: Pichia pastoris, purified (HisTrap, SEC) in OGNG; not shown: His-tag, N-terminal, kept) MWELRSIAFSRAVFAEFLATLLFVFFGLGSALNWPQALPSVLQIAMAFGLGIGTLVQALGHISGAHINPAVTVACLVGCHVSVLRAAFYVAAQLLGAVAGAALLHEITPADIRGDLAVNALSNSTTAGQAVTVELFLTLQLVLCIFASTDERRGENPGTPALSIGFSVALGHLLGIHYTGCSMNPARSLAPAVVTGKFDDHWVFWIGPLVGAILGSLLYNYVLFPPAKSLSERAAVLKGLEPDTDWEEREVRRRQSVELHSPQSLPRGTKA | – | – | 126 |
